In the RNAGym collection of RNA variant scans (doi:10.1073/pnas.2313332121):
Fewer inactive variants are shown than the library holds.

B1: TPR 5TU (parent)
chain: GGAUCUUCUCGAUCUAACAAAAAAGACAAAUCUGCCACAAAGCUUGAGAGCAUCUUCGGAUGCAGAGGCGGCAGCCUUCGGUGGCGCGAUAGCGCCAACGUUCUCAACUAUGACACGCAAAACGCGUGCUCCGUUGAAUGGAGUUUAUCAUG

Variants of: B1
Experiment: polymerase ribozyme fitness, log enrichment relative to wild type (log ratio); higher = more active; in vitro selection for triplet polymerase activity
In short: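 PCR was used to build mutant libraries for each subunit of a heterodimeric triplet polymerase ribozyme, which were then transcribed. A single in vitro selection round, in triplicate, used a frozen incubation at −7 °C and recovered extended constructs by gel excision, streptavidin beads and RT-PCR. Fitness is the logarithm of genotype enrichment relative to wild-type enrichment, averaged over replicates with inverse-variance weights. The logarithm is base 2, and after Illumina sequencing only genotypes with ≥10 input reads and ≥1 read per output were kept.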

Variant	polymerase ribozyme fitness (log ratio)
GGAUCUUCUCGAUCUAACAACAAAGACAAAUGUGCCACAAAGUUUGAGAGCAUCUUAGGAUGCAGAGGCGUCAGCCUUCGGUGGAGCCAUCGCGCCAACGUUCUCAACUAUGACACGCAAAACGCGUGCUCCGUUGAAUGGAGUUUUUCAUG [A21C C32G C43U C57A G71U C85A G88C A91C A147U]	≤ -4.2
GGAUCGUCUCGAGUUAACAAAAACGACAAAUCUGCCACAAAGCUUGAGAGCAUCUUCGGAUGCAGAGGCGGCAGCAUUCGUUGGCGAGAUAGCGCCAACGUUCUCAACUAUGACACGCAAAACGCGUGCUCCGUUGAAUGGAGUUUAUCAUG [U6G U13G C14U A24C C76A G81U C87A]	≤ -4.2
GGAUCUUCUCGAUCUAACGAAAAGGACAAAUCUGCCACAAAGAUUGAGAGCAUCUUCGAAUGCAGAGGCGGCAGCCUUCGGUGGCGCGAUAGCGCCAACGUUCUCAACUAUGACACGCAAAACGCGUGCUCCGUUGAAUGGAGUUUAUCAUG [A19G A24G C43A G59A]	≤ -4.2
GGAUCUUCUCGAUCUAACAAAAAAGACAAAUCUGCCACAAAGCUUGAGAGCAUCUUCUGAUGCAGAGGCGGCAGCCUUCGGUGGCGCGAUAGCGACAACGUUCUCAACUAUGACACGCAAAACGCGUGCUCCGUUGAAUGGAGUUUAUUAUG [G58U C95A C149U]	-0.828
GGAUCUUCUCGAUCUAACAAAAAAGACAAAUCUGCCACAAAGCUUGAGAGCAUUUUCGGAUGCAGAGGCGGCAGCCUUCGGUGGCGCGAUAGCGUCAACGUUCUCAACUAUGACACGCAAAACGCGUGCUCCCUUGAAUGGAGUUUAUCAUG [C54U C95U G133C]	-2.19
GGAUGUUCUCGAUCUAACAAAAAAGACAAAUGUGCCACAAAGCUUGAGAGCAUCUUCGGAUGCAGAGGCGGUGGCCUUCGGUGGCGCGAUGGCGCCAACGUUCUCAACUAUGACACGCUAAACGCGUGCUCCGUUGAAUGAAGUUUAUCAUG [C5G C32G C72U A73G A91G A119U G141A]	≤ -4.2
GGAUCUUCUCCAUCUAACAAAAAAGAUAAAUCUGCCACAAAGCUUGAGAGCAUCUUCGGAUGCAGAGGCGGCAGCCUUCGGUGGCGCGAUAUCGCCAACGUUCUCAACUAUGACACGCAAAACGCGUGCUCCGUUGAAUGGAGUUUAUCAUG [G11C C27U G92U]	-2.73
GGAUCUUCUCGGUCUAACAAAAAAGACAGAUCUGCCACAAAGCUUGAGAGCAUCAUCGGAUGCAGAGGCGGCAGCCUUCGGUGGUGCGAUAGCGCUAACGUUCUUAACUAUGACACGCAAAACGCGUGCUCCGUUGAAUGGAGUUUAUCAUG [A12G A29G U55A C85U C96U C105U]	≤ -4.2
GGAUCUUCUCGAUCUAACAAACAAGACAAAUCUGCCACAAAGCUUGAGAGCAUCUUCGGAUUCAGAGGCGGCUGCCUUCGGUGGCGCUAUAGCGCCAAUGUUCUCAACUAUGACACGAAAAACGCGUGCUCCGUUGAAUGGAGCUUAUCAUG [A22C G62U A73U G88U C99U C118A U144C]	≤ -4.2
GGAUCUUCUCGAUCUAACAAAAAAGACAAAUCUGCCACAAAGCUUGAGAGCAUUUUCGGAUGCAGAGGCGGCAGCCUUCGGUGGCGCGAUCUCGCCAACGUUCUUAACUAUGACACGCAAAACGCGUGCUCCUUUGAAUGGAGUUUAUCAUG [C54U A91C G92U C105U G133U]	≤ -4.2
GGAUCUUCUCGAUCUAACAAAAAAGACAAAUCUGCCCCAAAGCUUGAGCGCAUCUUCGGAUGCAGAGGCGGCAGCCUUCGGUGGCGCGAUAGCGCCAACGUUCUCAACUAUGACACGCAAAACACGUGCGCCGUUGAAUGGAGUUUAUCAUG [A37C A49C G124A U130G]	≤ -4.2
GGAUCUUCUCGAUCUAACAAAAAAGACAAAUCUGCCACAAAGCUUGAGAGCAUCUUCGGGUGCAGAGGCGGCAGCCUUCGGUGGCGCGAUAGCACCAACGUUAUCAACUAUGACACGCAAAACGCGUGCUCCGUUGAAUCGAGUUUAUCAUG [A60G G94A C103A G140C]	≤ -4.2
GGAUCUUCUCGAUCUAACAAAAAAGACAAAUCUGCCACAAAGCUUGAGACCCUCUUCGGAUGCAGAGGCGGCAGCCCUAGGUGGCGCGAUAGCGCCAACGGUCUCAACUAUGACUCGCAAAACGCGUGCUCCGUUGAAUGGAGUUUAUCAUG [G50C A52C U77C C79A U101G A115U]	≤ -4.2
GGAUCUUCUCGAGCUAACAAAAAAGACAAAUCUGCCACAAAGCAUGAGAGCAUCUUCGGAUGCAGAGGCGGCAGCCUUCGGUGGCGCGAUAGCGCCAACGUUCUCAACUAUGACACGCAAAACCCGUGCUCCGUUGAAUGGAGGUUAUCAUG [U13G U44A G124C U144G]	≤ -4.2
GGAUCUUCUCGAUCUAACAAAAAAGACAAAUCUGCCACAAAGCUUGAGAGCAUCUUCGGAUGCAGAGGCGGCAGCCUUCGGUGGCGCGAUAGCGCUAACGUUCUCAACUAUGACACGCAAAGCGCGUGCUCCGUUGAAUGGAGUUUAUCAUG [C96U A122G]	-0.14
GGAUCUUCUCGAUCUAACAAAAAAGACAAAUCUGCCACAAAGCUAGAGAGCGUCUUCGGAUGCAGAGGCGGCAGCCUUCGGUGGCGCGAUAGCGCCAACGUUCUCAACUAUGACACGAAAAACGCGUGCUCCGUUGAAUGGAGUUUAUCAUG [U45A A52G C118A]	-4.18
GGAUCUUCUCGAUCUAACAAAAAAGACAAAUCUGCCACAAAGCUUGAGAGCAUCUUCGGAUGCAGAGGCGGCAGGCUUCGGUGUCGCGAUAGCGCCAACGUUCUCAACUAUGACACGCAAAACGCGUGCUCCGUUGAAUGGAGUUUAUCAUG [C75G G84U]	≤ -4.2
GGAUCUUCUCGAUCUAACAAAAAAGACAAAUCUGCCACAAAGCUUGAGAGCAUCUUCGGAUGCAGAGGCGGCAGCCUUCGGUGGGGCGAUAGCGCCAACGGUCUCAACUAUGACACGCAAAACGCGUUCUCCGUUGAAUGGAGUUUAUCAUG [C85G U101G G128U]	-4.03
GGAUCUUCUCGAUCUAACAAAAAAGACAAAUCUGCCACAAAGCUUGAGAGCAAAUUCGGAUGCAGAGGCGGCAGCCUUCGGAGGCGCGAUAGCGCCAACGUUCUCAACUAUGACACGCAAAACGCGUGCUCCGUUGAAUGCAGUUUAUCAUG [U53A C54A U82A G141C]	-2.84
